From US20150087577A1 (POLYPHOR, published 2015)
Blank lines part the entries; values can stand above or below the binder they belong to. *1 amine or outer side, *2 acyl side, *3 side chain or, on linkers, in order; H or OH if unused. Bridges are numbered along the chain shown (N, C = ends). [ ]: non-standard residue; d: D form. (Pip)G = N-{3-[1'-(4'-methylpiperazinyl)]-propyl}-glycine, CN1CCN(CCCN(CC(=O)[*:2])[*:1])CC1; N(3-imidazol-1-ylpropyl)Gly = O=C(O)CNCCCn1ccnc1; 2Nal = N[C@@H](Cc1ccc2ccccc2c1)C(=O)O; Cit = NC(=O)NCCC[C@H](N)C(=O)O; NMeK = CN[C@@H](CCCCN)C(=O)O; Dab = NCC[C@H](N)C(=O)O; Sar = CNCC(=O)O

Target: human CXCR4 (human, UniProt P61073 1-352)
Experiment: cell-based or functional assay

human CXCR4, sequence (P61073 whole entry): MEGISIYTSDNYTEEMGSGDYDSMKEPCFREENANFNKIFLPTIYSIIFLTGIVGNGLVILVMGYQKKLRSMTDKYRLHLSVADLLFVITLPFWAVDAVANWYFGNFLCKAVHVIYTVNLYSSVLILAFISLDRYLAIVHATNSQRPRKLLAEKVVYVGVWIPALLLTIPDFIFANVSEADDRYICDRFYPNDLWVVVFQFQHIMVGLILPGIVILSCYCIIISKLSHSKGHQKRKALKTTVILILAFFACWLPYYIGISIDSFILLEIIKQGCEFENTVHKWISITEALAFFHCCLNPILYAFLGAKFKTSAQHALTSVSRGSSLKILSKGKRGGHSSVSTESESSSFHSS

- IC50 (nM) Ca2+ assay (method 2): 1.9 nM
B1: Example 132 (peptide)
peptide: cyclo(YR[Cit]CRG[dP]RR[2Nal]CYTK[dP]P)
modifications: disulfide 4-11
SMILES: C[C@@H](O)[C@@H]1NC(=O)[C@H](Cc2ccc(O)cc2)NC(=O)[C@@H]2CSSC[C@H](NC(=O)[C@H](CCCNC(N)=O)NC(=O)[C@H](CCCNC(=N)N)NC(=O)[C@H](Cc3ccc(O)cc3)NC(=O)[C@@H]3CCCN3C(=O)[C@H]3CCCN3C(=O)[C@H](CCCCN)NC1=O)C(=O)N[C@@H](CCCNC(=N)N)C(=O)NCC(=O)N1CCC[C@@H]1C(=O)N[C@@H](CCCNC(=N)N)C(=O)N[C@@H](CCCNC(=N)N)C(=O)N[C@@H](Cc1ccc3ccccc3c1)C(=O)N2

- IC50 (nM) Ca2+ assay (method 2): 4.5 nM
B2: Example 128 (peptide)
peptide: cyclo(YR[Cit]CRG[dP]RRWCY[Cit]K[dP]P)
modifications: disulfide 4-11
SMILES: N=C(N)NCCC[C@@H]1NC(=O)[C@@H]2CSSC[C@H](NC(=O)[C@H](Cc3c[nH]c4ccccc34)NC(=O)[C@H](CCCNC(=N)N)NC(=O)[C@H](CCCNC(=N)N)NC(=O)[C@H]3CCCN3C(=O)CNC1=O)C(=O)N[C@@H](Cc1ccc(O)cc1)C(=O)N[C@@H](CCCNC(N)=O)C(=O)N[C@@H](CCCCN)C(=O)N1CCC[C@@H]1C(=O)N1CCC[C@H]1C(=O)N[C@@H](Cc1ccc(O)cc1)C(=O)N[C@@H](CCCNC(=N)N)C(=O)N[C@@H](CCCNC(N)=O)C(=O)N2

- IC50 (nM) Ca2+ assay (method 2): 4.1 nM
B3: Example 130 (peptide)
peptide: cyclo(YRQCRG[dP]RR[2Nal]CY[Cit]K[dP]P)
modifications: disulfide 4-11
SMILES: N=C(N)NCCC[C@@H]1NC(=O)[C@@H]2CSSC[C@H](NC(=O)[C@H](Cc3ccc4ccccc4c3)NC(=O)[C@H](CCCNC(=N)N)NC(=O)[C@H](CCCNC(=N)N)NC(=O)[C@H]3CCCN3C(=O)CNC1=O)C(=O)N[C@@H](Cc1ccc(O)cc1)C(=O)N[C@@H](CCCNC(N)=O)C(=O)N[C@@H](CCCCN)C(=O)N1CCC[C@@H]1C(=O)N1CCC[C@H]1C(=O)N[C@@H](Cc1ccc(O)cc1)C(=O)N[C@@H](CCCNC(=N)N)C(=O)N[C@@H](CCC(N)=O)C(=O)N2

- IC50 (nM) Ca2+ assay (method 2): 52.2 nM
B4: Example 127 (peptide)
peptide: cyclo(YR[Cit]CRG[dP]RR[2Nal]CY[Cit][NMeK][dP]P)
modifications: disulfide 4-11
SMILES: CN1C(=O)[C@H](CCCNC(N)=O)NC(=O)[C@H](Cc2ccc(O)cc2)NC(=O)[C@@H]2CSSC[C@H](NC(=O)[C@H](CCCNC(N)=O)NC(=O)[C@H](CCCNC(=N)N)NC(=O)[C@H](Cc3ccc(O)cc3)NC(=O)[C@@H]3CCCN3C(=O)[C@H]3CCCN3C(=O)[C@@H]1CCCCN)C(=O)N[C@@H](CCCNC(=N)N)C(=O)NCC(=O)N1CCC[C@@H]1C(=O)N[C@@H](CCCNC(=N)N)C(=O)N[C@@H](CCCNC(=N)N)C(=O)N[C@@H](Cc1ccc3ccccc3c1)C(=O)N2

- IC50 (nM) Ca2+ assay (method 2): 10.9 nM
B5: Example 129 (peptide)
peptide: cyclo(YR[Cit]CRG[dP]RR[2Nal]CY[Sar]K[dP]P)
modifications: disulfide 4-11
SMILES: CN1CC(=O)N[C@@H](CCCCN)C(=O)N2CCC[C@@H]2C(=O)N2CCC[C@H]2C(=O)N[C@@H](Cc2ccc(O)cc2)C(=O)N[C@@H](CCCNC(=N)N)C(=O)N[C@@H](CCCNC(N)=O)C(=O)N[C@H]2CSSC[C@H](NC(=O)[C@H](Cc3ccc4ccccc4c3)NC(=O)[C@H](CCCNC(=N)N)NC(=O)[C@H](CCCNC(=N)N)NC(=O)[C@H]3CCCN3C(=O)CNC(=O)[C@H](CCCNC(=N)N)NC2=O)C(=O)N[C@@H](Cc2ccc(O)cc2)C1=O

- IC50 (nM) Ca2+ assay (method 2): 19.5 nM
B6: Example 126 (peptide)
peptide: cyclo(YR[Cit]CRG[dP]R[(Pip)G][2Nal]CY[Cit]K[dP]P)
modifications: disulfide 4-11
SMILES: CN1CCN(CCCN2CC(=O)N[C@@H](Cc3ccc4ccccc4c3)C(=O)N[C@H]3CSSC[C@H](NC(=O)[C@H](CCCNC(N)=O)NC(=O)[C@H](CCCNC(=N)N)NC(=O)[C@H](Cc4ccc(O)cc4)NC(=O)[C@@H]4CCCN4C(=O)[C@H]4CCCN4C(=O)[C@H](CCCCN)NC(=O)[C@H](CCCNC(N)=O)NC(=O)[C@H](Cc4ccc(O)cc4)NC3=O)C(=O)N[C@@H](CCCNC(=N)N)C(=O)NCC(=O)N3CCC[C@@H]3C(=O)N[C@@H](CCCNC(=N)N)C2=O)CC1

- IC50 (nM) Ca2+ assay (method 2): 1.7 nM
B7: Example 134 (peptide)
peptide: cyclo(YR[Cit]CRG[dP][Dab]R[2Nal]CY[Cit]K[dP]P)
modifications: disulfide 4-11
SMILES: N=C(N)NCCC[C@@H]1NC(=O)[C@@H]2CSSC[C@H](NC(=O)[C@H](Cc3ccc4ccccc4c3)NC(=O)[C@H](CCCNC(=N)N)NC(=O)[C@H](CCN)NC(=O)[C@H]3CCCN3C(=O)CNC1=O)C(=O)N[C@@H](Cc1ccc(O)cc1)C(=O)N[C@@H](CCCNC(N)=O)C(=O)N[C@@H](CCCCN)C(=O)N1CCC[C@@H]1C(=O)N1CCC[C@H]1C(=O)N[C@@H](Cc1ccc(O)cc1)C(=O)N[C@@H](CCCNC(=N)N)C(=O)N[C@@H](CCCNC(N)=O)C(=O)N2

- IC50 (nM) Ca2+ assay (method 2): 330 nM
B8: Example 125 (peptide)
peptide: cyclo(YR[Cit]CRG[dP][N(3-imidazol-1-ylpropyl)Gly]R[2Nal]CY[Cit]K[dP]P)
modifications: disulfide 4-11
SMILES: N=C(N)NCCC[C@@H]1NC(=O)CN(CCCn2ccnc2)C(=O)[C@H]2CCCN2C(=O)CNC(=O)[C@H](CCCNC(=N)N)NC(=O)[C@@H]2CSSC[C@H](NC(=O)[C@H](Cc3ccc4ccccc4c3)NC1=O)C(=O)N[C@@H](Cc1ccc(O)cc1)C(=O)N[C@@H](CCCNC(N)=O)C(=O)N[C@@H](CCCCN)C(=O)N1CCC[C@@H]1C(=O)N1CCC[C@H]1C(=O)N[C@@H](Cc1ccc(O)cc1)C(=O)N[C@@H](CCCNC(=N)N)C(=O)N[C@@H](CCCNC(N)=O)C(=O)N2

- IC50 (nM) Ca2+ assay (method 2): 2.4 nM
B9: Example 131 (peptide)
peptide: cyclo(YRTCRG[dP]RR[2Nal]CY[Cit]K[dP]P)
modifications: disulfide 4-11
SMILES: C[C@@H](O)[C@@H]1NC(=O)[C@H](CCCNC(=N)N)NC(=O)[C@H](Cc2ccc(O)cc2)NC(=O)[C@@H]2CCCN2C(=O)[C@H]2CCCN2C(=O)[C@H](CCCCN)NC(=O)[C@H](CCCNC(N)=O)NC(=O)[C@H](Cc2ccc(O)cc2)NC(=O)[C@@H]2CSSC[C@H](NC1=O)C(=O)N[C@@H](CCCNC(=N)N)C(=O)NCC(=O)N1CCC[C@@H]1C(=O)N[C@@H](CCCNC(=N)N)C(=O)N[C@@H](CCCNC(=N)N)C(=O)N[C@@H](Cc1ccc3ccccc3c1)C(=O)N2

- IC50 (nM) Ca2+ assay (method 2): 5.3 nM
B10: Example 133 (peptide)
peptide: cyclo(YR[Cit]CRG[dP]RR[2Nal]CYTK[dP]P)
modifications: disulfide 4-11
SMILES: C[C@@H](O)[C@@H]1NC(=O)[C@H](Cc2ccc(O)cc2)NC(=O)[C@@H]2CSSC[C@H](NC(=O)[C@H](CCCNC(N)=O)NC(=O)[C@H](CCCNC(=N)N)NC(=O)[C@H](Cc3ccc(O)cc3)NC(=O)[C@@H]3CCCN3C(=O)[C@H]3CCCN3C(=O)[C@H](CCCCN)NC1=O)C(=O)N[C@@H](CCCNC(=N)N)C(=O)NCC(=O)N1CCC[C@@H]1C(=O)N[C@@H](CCCNC(=N)N)C(=O)N[C@@H](CCCNC(=N)N)C(=O)N[C@@H](Cc1ccc3ccccc3c1)C(=O)N2
